Experiment [1] deals with Arp3 L117C, C408A, C189A, C307A (subunit of human Arp2/3 complex for the crosslinking assay) (human) (UniProt P61158). In words: cross-linking.
Experiment [2] has the same target. The experiment is described as follows: cross-linking. This is another data set of the same source.
Experiment [3] has the same target. In words: cross-linking. The source holds these as a separate data set.
Experiment [4] deals with Skeletal α-actin, monomeric (G-actin) (UniProt P68135). The experiment is described as follows: SEC. (In general: SEC sorts molecules by how far they enter the pores of the column.)

Read-outs that look alike come from different tables or passages of the source.

Turning to “Arp2 L199C (subunit of human Arp2/3 complex for the crosslinking assay) (from UniProt P61160 1-394) (natural protein)”, the crosslinked fraction at plateau in experiment [1] was 34%; in experiment [2], 14%; in experiment [3] it was 34%.

In experiment [4], “CapZ-CA hybrid heterodimer (CapZα-CA, CapZβ-CA) (from UniProt P52907;Q91YD9;P47756) (complex)” displayed a stoichiometry N (CapZ-CA:actin) of 1.

These data come from publication PMC10434305.
